# Test: Continuous spectrophotometric PYO demethylation assay (specific activity and kinetics of PodA)
# Assay type: biochemical
# Conditions: PodA 3 μM, PYO varying
# Protocol: Specific activity and kinetics of PodA. To determine specific activity and kinetic parameters of PodA for PYO, a continuous spectrophotometric assay monitoring the absorbance of PYO (690 nm) was utilized. Briefly, assays were performed at 25° C. in 100 μL reaction volumes in 96-well plates and reactions were monitored at 690 nm over 10 min. Reaction mixtures contained Phosphate buffer (50 mM, pH 6.0), ethylene glycol (1%, v/v), protein (3 μM) and substrate (for specific activity, 100 μM, for kinetics, varying). Data were acquired using the SpectraMax® M3 Microplate Reader (Molecular Devices) using the Soft Max Pro software every 10 s over 10 min. Path lengths for each well were calculated using Soft Max Pro endpoint readings and slopes were corrected for path lengths of 1 cm.
# Specific activity was calculated from the slope of the linear range of (ΔOD690 min^−1) using Beer's Law (A=εcl) with a path length of 1 cm and the molar extinction coefficient of PYO (4,130 M^−1 cm^−1). Equation was solved for c, giving specific activity in nmol min^−1 mg^−1 of PodA. For kinetic parameters, graphs of initial velocity (μM s^−1) versus substrate concentration (μM) were plotted using Prism v8 (GraphPad). The Michaelis-Menten kinetics model was used to determine Km and Vmax. The turnover number (kcat) was determined using the following equation: Vmax=kcat[E], where [E] was the concentration of PodA added. All spectrophotometric assays mentioned above were completed thrice, each in technical triplicate with a representative data set shown. Error bars represent standard deviation as calculated by Prism v8 (GraphPad). Standard deviation for kcat and Kcat KM^−1 was calculated using standard formulas for propagation of error.
Molecule,Activity of active site variants compared to controls,Michaelis-Menten behaviour
PodA^D72A: PodA active site variant D72A (protein) MTGKTKPAIIGGVAITALAAAGLGVWLFTDGRGGRSTTEPVTMTLDVKNDQVAKHDFGKPGMDVGDMDIFSAILSVDGKQVGYDGGACFFTNVTPDNPMTYCELTIHLDAGEIFARSLTPHTLAPFTMAITGGTGEYANSKGELTVSGVATPDEKYELKLTK,did not have measurable activity,
PodA^Y156F: PodA active site variant Y156F (protein) MTGKTKPAIIGGVAITALAAAGLGVWLFTDGRGGRSTTEPVTMTLDVKNDQVAKHDFGKPGMDVGDMDIFSDILSVDGKQVGYDGGACFFTNVTPDNPMTYCELTIHLDAGEIFARSLTPHTLAPFTMAITGGTGEYANSKGELTVSGVATPDEKFELKLTK,did not have measurable activity,
PodA^Y156A: PodA active site variant Y156A (protein) MTGKTKPAIIGGVAITALAAAGLGVWLFTDGRGGRSTTEPVTMTLDVKNDQVAKHDFGKPGMDVGDMDIFSDILSVDGKQVGYDGGACFFTNVTPDNPMTYCELTIHLDAGEIFARSLTPHTLAPFTMAITGGTGEYANSKGELTVSGVATPDEKAELKLTK,did not have measurable activity,
PodA^H121R: PodA active site variant H121R (protein) MTGKTKPAIIGGVAITALAAAGLGVWLFTDGRGGRSTTEPVTMTLDVKNDQVAKHDFGKPGMDVGDMDIFSDILSVDGKQVGYDGGACFFTNVTPDNPMTYCELTIHLDAGEIFARSLTPRTLAPFTMAITGGTGEYANSKGELTVSGVATPDEKYELKLTK,did not have measurable activity,
"PodA^D68A: PodA variant inhibiting product release, D68A (protein) MTGKTKPAIIGGVAITALAAAGLGVWLFTDGRGGRSTTEPVTMTLDVKNDQVAKHDFGKPGMDVGDMAIFSDILSVDGKQVGYDGGACFFTNVTPDNPMTYCELTIHLDAGEIFARSLTPHTLAPFTMAITGGTGEYANSKGELTVSGVATPDEKYELKLTK",,"maintained similar Michaelis-Menten trends for concentrations of PYO under 100 μM, after which Vmax leveled off"
"PodA^E154A: PodA active site variant E154A, inactive (protein) MTGKTKPAIIGGVAITALAAAGLGVWLFTDGRGGRSTTEPVTMTLDVKNDQVAKHDFGKPGMDVGDMDIFSDILSVDGKQVGYDGGACFFTNVTPDNPMTYCELTIHLDAGEIFARSLTPHTLAPFTMAITGGTGEYANSKGELTVSGVATPDAKYELKLTK",did not have measurable activity,
PodA^H121A: PodA active site variant H121A (protein) MTGKTKPAIIGGVAITALAAAGLGVWLFTDGRGGRSTTEPVTMTLDVKNDQVAKHDFGKPGMDVGDMDIFSDILSVDGKQVGYDGGACFFTNVTPDNPMTYCELTIHLDAGEIFARSLTPATLAPFTMAITGGTGEYANSKGELTVSGVATPDEKYELKLTK,did not have measurable activity,
PodA^H121K: PodA active site variant H121K (protein) MTGKTKPAIIGGVAITALAAAGLGVWLFTDGRGGRSTTEPVTMTLDVKNDQVAKHDFGKPGMDVGDMDIFSDILSVDGKQVGYDGGACFFTNVTPDNPMTYCELTIHLDAGEIFARSLTPKTLAPFTMAITGGTGEYANSKGELTVSGVATPDEKYELKLTK,did not have measurable activity,

# — patent US12427188B2, “Pyocyanine demethylases and related phenazine degrading agents compositions, methods and systems for interfering with viability of bacteria” (priority 2020, dated 2025)
